In patent US20170342144A1 (Sanofi, published 2017):
Changes are numbered by the printed parent chain.

T1: human TGFβ3 (human, UniProt P10600 301-412)
T1 sequence: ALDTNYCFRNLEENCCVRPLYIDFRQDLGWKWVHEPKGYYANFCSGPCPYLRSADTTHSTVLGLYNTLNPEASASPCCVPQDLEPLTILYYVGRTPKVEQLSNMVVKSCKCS

T2: human TGFβ2 (human, UniProt P61812 303-414)
T2 construct: also called TGFβ2 homodimer
T2 sequence: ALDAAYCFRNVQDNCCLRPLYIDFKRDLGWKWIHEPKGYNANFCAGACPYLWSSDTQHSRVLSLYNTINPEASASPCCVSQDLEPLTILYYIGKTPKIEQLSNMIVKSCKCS

B1: D56S (antibody, V domains shown)
VH: QVQLVQSGAEVKKPGSSVKVSCKASGYTFSSNVISWVRQAPGQGLEWMGGVIPIVSIANYAQRFKGRVTITADESTSTTYMELSSLRSEDTAVYYCASTLGLVLDAMDYWGQGTLVTVSS
VL: ETVLTQSPGTLSLSPGERATLSCRASQSLGSSYLAWYQQKPGQAPRLLIYGASSRAPGIPDRFSGSGSGTDFTLTISRLEPEDFAVYYCQQYADSPITFGQGTRLEIK
notes: GC1008 IgG4 variant
B2: D56T (antibody, V domains shown)
VH: B1 VH with S56T
VL: B1 VL
notes: GC1008 IgG4 variant
B3: D56V (antibody, V domains shown)
VH: B1 VH with S56V
VL: B1 VL
notes: GC1008 IgG4 variant
B4: E74C (antibody, V domains shown)
VH: B1 VH with S56D, E74C
VL: B1 VL
notes: GC1008 IgG4 variant
B5: G101Y (antibody, V domains shown)
VH: B1 VH with S56D, G101Y
VL: B1 VL
notes: GC1008 IgG4 variant
B6: I52V (antibody, V domains shown)
VH: B1 VH with I52V, S56D
VL: B1 VL
notes: GC1008 IgG4 variant
B7: I54A (antibody, V domains shown)
VH: B1 VH with I54A, S56D
VL: B1 VL
notes: GC1008 IgG4 variant
B8: I54H (antibody, V domains shown)
VH: B1 VH with I54H, S56D
VL: B1 VL
notes: GC1008 IgG4 variant
B9: I54L (antibody, V domains shown)
VH: B1 VH with I54L, S56D
VL: B1 VL
notes: GC1008 IgG4 variant
B10: I54M (antibody, V domains shown)
VH: B1 VH with I54M, S56D
VL: B1 VL
notes: GC1008 IgG4 variant
B11: I54P (antibody, V domains shown)
VH: B1 VH with I54P, S56D
VL: B1 VL
notes: GC1008 IgG4 variant
B12: I54V (antibody, V domains shown)
VH: B1 VH with I54V, S56D
VL: B1 VL
notes: GC1008 IgG4 variant
B13: L104W (antibody, V domains shown)
VH: B1 VH with S56D, L104W
VL: B1 VL
notes: GC1008 IgG4 variant
B14: N32A (antibody, V domains shown)
VH: B1 VH with N32A, S56D
VL: B1 VL
notes: GC1008 IgG4 variant

Molecular target: T3, human TGFβ1 (human, UniProt P01137 279-390)
T3 construct: also called TGFβ1 homodimer
Test: Biacore off-rate vs wt GC1008, 50 nM
Text: (§1) Plasmids encoding either the GC1008 heavy chain or light chain were used as a template in PCR-based mutagenesis reactions. Mutations to the encoding DNA were made to create 155 single amino acid substitutions of the encoded heavy chain amino acid sequence and one single amino acid substitution of the encoded light chain amino acid sequence. A QuikChange® Lightning Site-Directed Mutagenesis kit (Agilent Technologies, Santa Clara Calif.) was used according to the manufacturer's instructions to create DNA mutations using a set of forward and reverse primers, either designed for a specific amino acid or for all 20 amino acids with a degenerate codon (NNK). After sequencing confirmation, identified mutant DNA was paired with a wild-type light or heavy chain DNA for transfection into an Expi293F™ host cell suspension (Life Techonologies Corp., Grand Island, N.Y.). At 4 days post-transfection, conditioned media (1 mL) was harvested and purified using a 1 mL Protein A PhyTip® column (PhyNexus, Inc., San Jose, Calif.) and a PureSpeed™ 12-channel pipette (Rainin Instrument LLC, Oakland, Calif.). Purified variant antibody samples were analyzed in duplicate on a Biacore® 3000 (GE Healthcare) at 50 nM concentrations, using the 100 RU level TGFβ1, 2, and 3 immobilized surfaces. The off-rate (kd) of the variants was divided by the kd of the wild-type control to obtain the fold change in the kd. […] A heat map was generated to visualize the results. Variants that completely lost affinity for TGFβ were shown in red without numbers.

T3 sequence (P01137 279-390 limits assumed): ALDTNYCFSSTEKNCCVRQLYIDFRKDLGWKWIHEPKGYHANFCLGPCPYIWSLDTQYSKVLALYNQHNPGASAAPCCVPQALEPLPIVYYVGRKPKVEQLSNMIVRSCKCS

| Binder | kd var/kd wt |
| --- | --- |
| B1 | 1.1 |
| B2 | 1.3 |
| B3 | 1.6 |
| B4 | 1.7 |
| B5 | 1.9 |
| B6 | 0.9 |
| B7 | 1.8 |
| B8 | 2.1 |
| B9 | 1.2 |
| B10 | 1.5 |
| B11 | 1.5 |
| B12 | 1 |
| B13 | 4.7 |
| B14 | 1.3 |

Molecular target: T1, human TGFβ3
Test: Biacore off-rate vs wt GC1008, 50 nM
Text: as §1

| Binder | kd var/kd wt |
| --- | --- |
| B1 | 1 |
| B2 | 1.2 |
| B3 | 1.3 |
| B4 | 0.7 |
| B5 | 2 |
| B6 | 1.2 |
| B7 | 2 |
| B8 | 1.6 |
| B9 | 1.1 |
| B10 | 1.7 |
| B11 | 1.6 |
| B12 | 0.8 |
| B13 | 5.1 |
| B14 | 1.5 |

Molecular target: T2, human TGFβ2
Test: Biacore off-rate vs wt GC1008, 50 nM
Text: as §1

| Binder | kd var/kd wt |
| --- | --- |
| B1 | 1.3 |
| B2 | 1.5 |
| B3 | 1.5 |
| B4 | 0.8 |
| B5 | 1.5 |
| B6 | 1.1 |
| B7 | 1.5 |
| B8 | 1.4 |
| B9 | 1.1 |
| B10 | 1.3 |
| B11 | 1.3 |
| B12 | 1 |
| B13 | 2.9 |
| B14 | 1.4 |
